Data reported in PMC11446282.

T1: B55α (Homo sapiens, UniProt P63151)
T1 construct: His; made in house; host or cells: HEK293 cells
T1 sequence (P63151 1-447): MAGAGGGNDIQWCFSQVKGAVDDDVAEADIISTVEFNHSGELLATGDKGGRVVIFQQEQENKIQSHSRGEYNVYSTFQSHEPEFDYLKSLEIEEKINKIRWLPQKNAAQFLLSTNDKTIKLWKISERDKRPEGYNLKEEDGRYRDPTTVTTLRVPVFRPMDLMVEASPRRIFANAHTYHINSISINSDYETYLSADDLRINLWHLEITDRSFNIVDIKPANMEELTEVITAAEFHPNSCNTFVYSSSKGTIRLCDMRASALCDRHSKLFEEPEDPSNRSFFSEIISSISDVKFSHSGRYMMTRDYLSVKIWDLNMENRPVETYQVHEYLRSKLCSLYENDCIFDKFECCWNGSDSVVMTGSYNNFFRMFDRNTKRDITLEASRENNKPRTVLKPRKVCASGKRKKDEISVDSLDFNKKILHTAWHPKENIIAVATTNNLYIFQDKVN


Molecular target: T1, B55α
Assay: Surface plasmon resonance with captured Twin-Strep B55α
Format: binding
Settings: same SPR approach as for B55i; fig. S15

binding to B55α, affinity range | Molecule
low micromolar | PME1: full-length PME1 protein expressed in BL21(DE3) (protein) MSALEKSMHLGRLPSRPPLPGSGGSQSGAKMRMGPGRKRDFSPVPWSQYFESMEDVEVENETGKDTFRVYKSGSEGPVLLLLHGGGHSALSWAVFTAAIISRVQCRIVALDLRSHGETKVKNPEDLSAETMAKDVGNVVEAMYGDLPPPIMLIGHSMGGAIAVHTASSNLVPSLLGLCMIDVVEGTAMDALNSMQNFLRGRPKTFKSLENAIEWSVKSGQIRNLESARVSMVGQVKQCEGITSPEGSKSIVEGIIEEEEEDEEGSESISKRKKEDDMETKKDHPYTWRIELAKTEKYWDGWFRGLSNLFLSCPIPKLLLLAGVDRLDKDLTIGQMQGKFQMQVLPQCGHAVHEDAPDKVAEAVATFLIRHRFAEPIGGFQCVFPGC
low micromolar | Arpp19: full-length Arpp19 protein (S62E in the SPR method) (protein, UniProt P56211 1-112, looked up, variant S62E, full-length) MSAEVPEAASAEEQKEMEDKVTSPEKAEEAKLKARYPHLGQKPGGSDFLRKRLQKGQKYFDEGDYNMAKAKMKNKQLPTAAPDKTEVTGDHIPTPQDLPQRKPSLVASKLAG
